± gives the half width of the 95% confidence interval.
Tests used:
[1] = folding stability dG unfold from chymotrypsin proteolysis; higher = more stable
How it was run: (§1)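 Unfolding free energy was derived, per protease or combined, by relating Bayesian-fitted K50 values from sequencing counts to a sequence-predicted unfolded-state K50 and a shared folded-state K50. The underlying digests exposed cysteine-free mini-proteins under 80 residues, in a PA-tagged cDNA display construct, to trypsin and chymotrypsin at 11 threefold-diluted concentrations and to a no-protease condition. A filter kept only designs with AlphaFold2 dimer inter-PAE above 15.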

[2] = folding stability dG unfold from trypsin proteolysis; higher = more stable
How it was run: as §1

[3] = folding stability dG unfold (combined trypsin and chymotrypsin); higher = more stable
How it was run: as §1

Sequence | folding stability dG unfold [1] [kcal/mol] | folding stability dG unfold [2] [kcal/mol] | folding stability dG unfold [3] [kcal/mol]
SAGGSAGGSATTTTAPDGSPVTVYPETGVARVYDPATGLWTRLTTRPDGVVEETPLPPGAPLESAGGSAGGS [r12_997_JUSTAS] | 0.6 ± 0.079 | -0.687 ± 0.23 | 0.307 ± 0.068
SAGGSAGGSATVTVERVGNRLLLSFPDGSYYVAELPGEAEVDLASGKITLPANSRVEPVPLERSAGGSAGGS [r20_158_TrMRF] | 1 ± 0.015 | 0.0598 ± 0.02 | 0.743 ± 0.029
SAGGSAGGSAVITLKPGETITITATITNADGSTVTITEVVRLPDGRLVVRVTNADGETYEFVLSAGGSAGGS [r12_31_TrROS_Hall] | 3.3 ± 0.12 | 3.54 ± 0.16 | 3.44 ± 0.089
SAGGSAGGSAVKIKIEQLGPGYFHITIEQEMMYPDGKSRKMTMTMMFKVNAPPNDPALRELLSAGGSAGGSA [r18_215_TrROS] | 2.98 ± 0.088 | 2.69 ± 0.059 | 2.97 ± 0.13
SAGGSAGGSAVPLTVLEEEKGEGTVVVITRGPDGKLIVTTYTKDPNSEKWTEKRTVLAPEELLSAGGSAGGS [r20_70_JUSTAS] | 2.08 ± 0.067 | 1.73 ± 0.022 | 1.98 ± 0.054
SAGGSAGGSAVTVDPSSNVVTTTDPATGTSTVTTTPPLPNGTPVLTSTTTTDAAGTPTTTTVTSAGGSAGGS [r12_952_JUSTAS] | 1.38 ± 0.049 | 2.63 ± 0.12 | 2.04 ± 0.059
SAGGSAGGSAVVSVSPDGYLRLAYYPETGELRELPPDVSVEEFLEAFPDVVVLAAPVAPTPESAGGSAGGSA [r18_53_TrMRF] | 1.65 ± 0.029 | 0.961 ± 0.016 | 1.41 ± 0.048
SAGGSAGGSDDDDAKKAMEQMKPPPIPIKIQVKIEYDPSLGWLKVEIHFFGFGLRITGTIPIDSAGGSAGGS [r20_230_TrROS] | 4.56 ± 0.31 | 3.33 ± 0.16 | 4.08 ± 0.48
SAGGSAGGSDDTAEFEGPVNVTLTLDGKPVNINAWVTRLPPGWFRIVLPDGVIELPGGNLRVGSAGGSAGGS [r12_790_TrMRF] | 1.31 ± 0.069 | 0.84 ± 0.039 | 1.16 ± 0.051
SAGGSAGGSDFPVKILEVEFHPNGSITIVIQAPDGWYIKATFHVPPNGNVKMSIELIPDPDAISAGGSAGGS [r20_23_TrROS] | 4 ± 0.15 | 3.36 ± 0.17 | 3.85 ± 0.19
SAGGSAGGSDKIKELAKKLKIVKVEKKKDGKYILLVKDEKTGKLYEIEVDLKTNKVTIKELKPSAGGSAGGS [r12_944_TrROS_Hall] | 4.31 ± 0.13 | 2.81 ± 0.26 | 3.82 ± 0.39
SAGGSAGGSDKYVVVIRVVNKETKKVTTLVFEGLKTPEELKAAVEALLPPGVVKVEIRVVKLPSAGGSAGGS [r20_29_TrROS_Hall] | 3.28 ± 0.12 | 2.89 ± 0.18 | 3.18 ± 0.15
SAGGSAGGSDLPIKIKMEPIPPGMPPGQVYRMEIEIPNGWVIRYSFYFTGGKLEFEPMEIKPVSAGGSAGGS [r12_1049_TrROS] | 3.58 ± 0.08 | 2.22 ± 0.19 | 3.13 ± 0.28
SAGGSAGGSDPEFELVRVEVFPFPTATLVRAVARFPPTDEYVEVELVHFPVPDRVLLRVRLLPSAGGSAGGS [r12_14_TrMRF] | 3.93 ± 0.071 | 3.07 ± 0.064 | 3.58 ± 0.097
SAGGSAGGSDPSATISFSFPLPDGSTININITITDEGSGPRIEIDITVTDANNNTAPAKFTIDSAGGSAGGS [r12_33_TrMRF] | 1.4 ± 0.14 | 1.58 ± 0.11 | 1.65 ± 0.11
SAGGSAGGSDPTAPVITTVPFPSGAVLTITTYPDSVTITYPSPGTTYTVPASAPIPITYQPALSAGGSAGGS [r12_227_JUSTAS] | 0.0869 ± 0.12 | 0.674 ± 0.015 | 0.488 ± 0.067
SAGGSAGGSDPTPVVVEFPFSSEEEAEKKAKEAAEKLKAEGVDIKEVKIEYDPEKGTVTLTLGSAGGSAGGS [r20_155_JUSTAS] | 1.07 ± 0.062 | 1.36 ± 0.043 | 1.21 ± 0.11
SAGGSAGGSDVEDIIKKLKIPPGYRMRFPDGKSHKFNNLDDIRNLAEMGMPPDNIDKIQIQPYSAGGSAGGS [r12_430_TrROS] | 0.09 ± 0.28 | -0.152 ± 0.22 | 0.0517 ± 0.15
SAGGSAGGSEDKYIIRVEVLLPNKKRTYVLEEPEKGIEAFKKRLEKEYPDEPIVEVRIEVLPASAGGSAGGS [r12_429_TrMRF] | 1.37 ± 0.11 | 0.874 ± 0.032 | 1.19 ± 0.1
SAGGSAGGSEEKKIKIKIKIERDPENPNTYRITIEDEETGERYELEITVPPPKPKVFFFPKKKSAGGSAGGS [r12_985_TrROS_Hall] | 2.19 ± 0.12 | 2.24 ± 0.023 | 2.18 ± 0.17
SAGGSAGGSEKIIEELKKKFPGLKIDKIEITVKKKKITIELKPPPKVYLTKEELEKKGYKIEKSAGGSAGGS [r12_3_TrROS_Hall] | 0.449 ± 0.33 | 1.33 ± 0.041 | 0.87 ± 0.22

Sequence | folding stability dG unfold [1] [kcal/mol] | folding stability dG unfold [2] [kcal/mol] | folding stability dG unfold [3] [kcal/mol]
SAGGSAGGSEKKPPEVTVVIKLPKGTSLEELLAALPPGAKAEIVEVVKVDEEKNEVYVKIRLTSAGGSAGGS [r12_469_TrROS_Hall] | 2.71 ± 0.04 | 2.26 ± 0.11 | 2.61 ± 0.095
SAGGSAGGSEKPPVKTITLVLKVDDAEEAAKALAEELGVEITRIEVTRDENGKVYVRITIRLPSAGGSAGGS [r12_359_TrROS_Hall] | 3.99 ± 0.099 | 3.6 ± 0.1 | 3.9 ± 0.14
SAGGSAGGSEKVEIEREFKLPDPNGKPFRFTVEIEVEPRNDGLKIEITEVEGPWMRDAIKKLLSAGGSAGGS [r12_743_TrROS] | 0.922 ± 0.24 | 0.696 ± 0.14 | 0.907 ± 0.2
SAGGSAGGSEKVIVVPSEEALKALEDAGIEVKKIEVFTETVTYYYPPGFPPVTETRTYLLVEVSAGGSAGGS [r12_78_TrROS_Hall] | 2.26 ± 0.072 | 1.45 ± 0.056 | 1.96 ± 0.083
SAGGSAGGSELEKALASAKPGEEVTVTVESTTPDGTPSVEIVEVKVEAETPSPGKENLEKNRLVSAGGSAGG [r6_893_JUSTAS] | 0.0837 ± 0.065 | -0.602 ± 0.23 | -0.112 ± 0.44
SAGGSAGGSELPEGVEVETEPIAEIEITDEDGRKYKISIEAVKIRGPDGKEFLVISVSIEELPSAGGSAGGS [r12_544_TrROS_Hall] | 4.16 ± 0.34 | 3.25 ± 0.56 | 3.81 ± 0.62
SAGGSAGGSELPVESIETETYEDPSTGVKTVREKYPGGYVVTKTLYVPPDGPPIELPVEVRPESAGGSAGGS [r12_111_JUSTAS] | 0.63 ± 0.083 | -0.0484 ± 0.17 | 0.425 ± 0.23
SAGGSAGGSELSDEEIEALRKPPKVRIRVEIVYPDGTVEEREFSSLEEALAAAKERNVTVKILSAGGSAGGS [r12_244_TrROS_Hall] | 1.76 ± 0.058 | 2.86 ± 0.12 | 2.28 ± 0.089
SAGGSAGGSEMEVKVTVEPAPAGAPPGAVVRVEVEFEDGFRITVRFTFVDGKLRAEVTEIKPVSAGGSAGGS [r12_1049_TrROS_Hall] | 3.65 ± 0.061 | 2.92 ± 0.085 | 3.37 ± 0.1
SAGGSAGGSEPEEPEYILIERVEAGEKPKITITFKDGTKKEIEVKPGETILIKVPKDAKIEVESAGGSAGGS [r12_553_TrROS_Hall] | 1.1 ± 0.13 | 0.983 ± 0.067 | 0.94 ± 0.2
SAGGSAGGSETRVLVRPLDGAIVIEAYRRLPDGSWVLAERIVIPTKGDDPESIARAQEVIDKLSAGGSAGGS [r12_169_TrMRF] | 4.67 ± 0.087 | 3.76 ± 0.059 | 4.38 ± 0.078
SAGGSAGGSETVTLTLVVDSPEEAKALIDALKKAGIKEVTLEEKDGKLVLTITMSKEELEKLKSAGGSAGGS [r12_846_TrROS_Hall] | 3.8 ± 0.13 | 2.31 ± 0.23 | 3.41 ± 0.2
SAGGSAGGSETVVIKIEVSPEELEKLKEALEEAGYEVEIRVERDENGKLTVTVTIRLPPGVKPSAGGSAGGS [r12_653_TrROS_Hall] | 2.57 ± 0.069 | 3.18 ± 0.17 | 2.86 ± 0.086
SAGGSAGGSEVKTITLTIKNKETNKEIKIEVQVFKNEDGELVFIAKAEITYNGKKYTFTVLLPSAGGSAGGS [r12_619_TrROS_Hall] | 4.38 ± 0.16 | 3.82 ± 0.27 | 4.43 ± 0.31
SAGGSAGGSEVKVLVYPPKGPPRLFADDVPIETLVAQFTAEDPPEPLVLVTKEEAEKLGFPLESAGGSAGGS [r12_379_TrMRF] | 0.15 ± 0.14 | 0.435 ± 0.047 | 0.27 ± 0.22
SAGGSAGGSEVLEVVLPRPDGRLVLLRVDPEGRLALVVFPDGSVRVFEVESPEEAVQRVLDAESAGGSAGGS [r12_866_TrMRF] | 2.6 ± 0.034 | 1.92 ± 0.054 | 2.41 ± 0.07
SAGGSAGGSEWTIESIRPRPDGSLIARVRPEGVNVSVEVEFDTLEELLAFAKLLEELGGKVTGSAGGSAGGS [r20_177_TrMRF] | 1.98 ± 0.023 | 1.62 ± 0.04 | 1.82 ± 0.058
SAGGSAGGSEWYEIRIPGIKGSADDLVEDIQDWFPAPNMKISIEEVEPMGDGLPGMTIKLRVNSAGGSAGGS [r12_348_TrROS] | 0.361 ± 0.11 | 0.227 ± 0.033 | 0.381 ± 0.054
SAGGSAGGSEYRIELELFRTPEGGLVVPVRIYPPDGGRFEGPASLEELVERFGFSFPPLLELLSAGGSAGGS [r20_235_TrMRF] | 2.54 ± 0.12 | 1.58 ± 0.035 | 2.15 ± 0.092
SAGGSAGGSFEILEVHPVKDGWLMIVVRTPGKMKVITIPPDDLDEIPGLDDIAIFPVKDGEPISAGGSAGGS [r12_343_TrROS] | 1.65 ± 0.12 | 1.28 ± 0.049 | 1.38 ± 0.21
